How the values were obtained:
[1] = target: YFP-Stim1 (human) (UniProt Q13586); assay: FRET or BRET
[2] = target: CFP-Stim1 (human) (UniProt Q13586); assay: FRET or BRET

Row | Substance | FRET reduction against WT-Orai3 with Stim1 [1] [%] | FRET reduction against WT-Orai3 with Stim1 [2] [%]
1 | CFP-Orai3-L292S (from UniProt Q9BRQ5 1-295) (natural protein) | 20 | –
2 | YFP-Orai3-L285S (from UniProt Q9BRQ5 1-295) (natural protein) | – | 35

Source: publication PMC3048740
